Assay results taken from PMC12582304, “Asymmetric gating of a homopentameric ion channel GLIC revealed by cryo-EM” (Proceedings of the National Academy of Sciences of the …, 2025).

Molecular target: the molecule itself
Test: cryo-EM structure; nanodisc-reconstituted GLIC-WT at pH 4.0; earlier dataset (ref. 44) reprocessed with symmetry expansion, focused classification and particle reorientation; C5 or no symmetry imposed

B1: Gloeobacter violaceus proton-gated ion channel (GLIC), wild type (natural protein)
chain: VSPPPPIADEPLTVNTGIYLIECYSLDDKAETFKVNAFLSLSWKDRRLAFDPVRSGVRVKTYEPEAIWIPEIRFVNVENARDADVVDISVSPDGTVQYLERFSARVLSPLDFRRYPFDSQTLHIYLIVRSVDTRNIVLAVDLEKVGKNDDVFLTGWDIESFTAVVKPANFALEDRLESKLDYQLRISRQYFSYIPNIILPMLFILFISWTAFWSTSYEANVTLVVSTLIAHIAFNILVETNLPKTPYMTYTGAIIFMIYLFYFVAVIEVTVQHYLKVESQPARAASITRASRIAFPVVFLLANIILAFLFFG
notes: GLIC, proton-gated pentameric ligand-gated ion channel of Gloeobacter violaceus; Homopentamer in DOPE/POPC/POPS nanodiscs; As I recall, the construct is the mature channel without its signal peptide, about 317 residues; also called GLIC-WT; WT; source: E. coli C41, purified (amylose resin, SEC), nanodisc-reconstituted
  stoichiometry N: 5
